Source: paper doi:10.1101/2024.10.11.617910

Target: pyroglutamate beta-amyloid peptide (pGlu3-Aβ)
Experiment: SiMoA

limit of detection (LoD): 4 pM
B1: Lecanemab (antibody, V domains shown)
VH: EVQLVESGGGLVQPGGSLRLSCSASGFTFSSFGMHWVRQAPGKGLEWVAYISSGSSTIYYGDTVKGRFTISRDNAKNSLFLQMSSLRAEDTAVYYCAREGGYYYGRSYYTMDYWGQGTTVTVSS
VL: DVVMTQSPLSLPVTPGAPASISCRSSQSIVHSNGNTYLEWYLQKPGQSPKLLIYKVSNRFSGVPDRFSGSGSGTDFTLRISRVEAEDVGIYYCFQGSHVPPTFGPGTKLEIK
